Data taken from patent US20110117113A1, “IMMUNOGLOBULIN SINGLE VARIABLE DOMAIN DIRECTED AGAINST HUMAN CXCR4 AND OTHER CELL ASSOCIATED PROTEINS AND METHODS TO GENERATE THEM” (priority 2009, published 2011).
Changes are numbered by the printed parent chain.

Legend:
[1] = target: CXCR4 mutation library clone 2396 (S178C) (human, UniProt P61073 1-352); experiment: immunofluorescence on HEK-293T expressing the clone, normalised to wild type
[2] = target: T1, CXCR4 mutation library clone 414 (C218R, E179V, S351T) (human, UniProt P61073 1-352); experiment: as above
T1 chain: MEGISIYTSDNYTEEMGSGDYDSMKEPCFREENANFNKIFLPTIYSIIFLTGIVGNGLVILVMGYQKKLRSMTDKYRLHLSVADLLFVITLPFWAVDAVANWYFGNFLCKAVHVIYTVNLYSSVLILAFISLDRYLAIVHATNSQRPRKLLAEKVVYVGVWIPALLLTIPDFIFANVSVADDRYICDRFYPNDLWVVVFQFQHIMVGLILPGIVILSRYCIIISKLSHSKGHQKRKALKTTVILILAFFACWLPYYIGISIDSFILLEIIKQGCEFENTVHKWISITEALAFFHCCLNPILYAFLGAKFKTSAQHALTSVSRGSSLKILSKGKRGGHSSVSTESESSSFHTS

[3] = target: T2, CXCR4 mutation library clone 914 (N192K) (human, UniProt P61073 1-352); experiment: as above
[4] = target: T3, CXCR4 mutation library clone 709 (P163L, S178I) (human, UniProt P61073 1-352); experiment: as above
T3 chain: T1 chain with P163L, S178I, V179E, R218C, T351S

[5] = target: T4, CXCR4 mutation library clone 2834 (E179V, G258E) (human, UniProt P61073 1-352); experiment: as above
T4 chain: T1 chain with R218C, G258E, T351S

[6] = target: T5, CXCR4 mutation library clone 1057 (K230E, S178R) (human, UniProt P61073 1-352); experiment: as above
T5 chain: T1 chain with S178R, V179E, R218C, K230E, T351S

[7] = target: T2, CXCR4 mutation library clone 914 (N192K); experiment: immunofluorescence, high stringency, average for residue N192 (one clone)
[8] = target: all CXCR4 library clones containing a mutation at F189; experiment: immunofluorescence, average over all clones with a mutation at F189
[9] = target: all CXCR4 library clones containing a mutation at E277; experiment: immunofluorescence, high stringency, average over all clones with a mutation at E277

B1: Nanobody 238D2 (VHH)
VHH: EVQLVESGGGLVQTGGSLRLSCAASGFTFSSYAMSWVRQAPGKGLEWVSGIKSSGDSTRYAGSVKGRFTISRDNAKNMLYLQMYSLKPEDTAVYYCAKSRVSRTGLYTYDNRGQGTQVTVSS
% immunofluorescence [1]: 44.9%
% immunofluorescence [2]: 71.1%
% immunofluorescence [3]: 8.3%
% immunofluorescence [4]: 64.1%
% immunofluorescence [5]: 84.6%
% immunofluorescence [6]: 54.6%
average nanobody reactivity [7]: 8.3%
average nanobody reactivity [8]: -0.9%
average nanobody reactivity [9]: 27.5%
